The record followed here is publication doi:10.1101/2020.12.17.423260.

The series concerns the target 3Dpol-WT (RNA-dependent RNA polymerase) (Foot-and-mouth disease virus, UniProt P03305 1863-2332). Briefly: fluorescence polarisation anisotropy. Background: In fluorescence polarisation assays a small probe gives low polarisation when free and higher when bound to something large.

Chain of 3Dpol-WT (RNA-dependent RNA polymerase) (P03305 1863-2332): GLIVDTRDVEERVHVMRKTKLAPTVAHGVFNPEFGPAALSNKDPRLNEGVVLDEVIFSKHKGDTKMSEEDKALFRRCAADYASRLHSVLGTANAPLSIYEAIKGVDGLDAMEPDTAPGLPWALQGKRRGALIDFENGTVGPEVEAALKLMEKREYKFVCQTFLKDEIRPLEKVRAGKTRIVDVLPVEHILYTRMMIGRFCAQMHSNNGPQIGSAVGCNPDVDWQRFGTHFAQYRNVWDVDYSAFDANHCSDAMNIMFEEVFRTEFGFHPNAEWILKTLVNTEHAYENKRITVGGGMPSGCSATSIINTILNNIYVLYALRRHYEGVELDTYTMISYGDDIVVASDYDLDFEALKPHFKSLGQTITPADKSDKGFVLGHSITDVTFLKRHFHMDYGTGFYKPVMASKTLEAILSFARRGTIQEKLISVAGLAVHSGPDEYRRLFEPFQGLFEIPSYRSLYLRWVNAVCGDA

As for AAAAAAAAAAAAA (ssRNA) [13mer poly-A RNA], the Kd (commonly the concentration at which binding is half-saturated) came out at 5.83 ± 1.3 µM.
